Reference: patent US20220265759

Target: T1, human chemokine receptor CCR10, P46092
T1 chain: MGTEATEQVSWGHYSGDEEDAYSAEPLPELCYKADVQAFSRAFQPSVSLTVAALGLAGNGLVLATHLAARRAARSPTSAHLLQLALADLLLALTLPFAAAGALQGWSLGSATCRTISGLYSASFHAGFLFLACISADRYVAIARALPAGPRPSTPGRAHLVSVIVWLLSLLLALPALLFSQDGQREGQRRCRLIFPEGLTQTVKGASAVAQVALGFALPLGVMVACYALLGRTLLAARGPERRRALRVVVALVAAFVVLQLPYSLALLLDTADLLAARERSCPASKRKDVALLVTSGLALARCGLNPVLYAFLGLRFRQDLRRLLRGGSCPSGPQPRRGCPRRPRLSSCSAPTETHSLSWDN

B1: human endothelial nitric oxide synthase (eNOS) (protein)
chain: GNLKSVAQEPGPPCGLGLGLGLGLCGKQGPATPAPEPSRAPASLLPPAPEHSPPSSPLTQPPEGPKFPRVKNWEVGSITYDTLSAQAQQDGPCTPRRCLGSLVFPRKLQGRPSPGPPAPEQLLSQARDFINQYYSSIKRSGSQAHEQRLQEVEAEVAATGTYQLRESELVFGAKQAWRNAPRCVGRIQWGKLQVFDARDCRSAQEMFTYICNHIKYATNRGNLRSAITVFPQRCPGRGDFRIWNSQLVRYAGYRQQDGSVRGDPANVEITELCIQHGWTPGNGRFDVLPLLLQAPDDPPELFLLPPELVLEVPLEHPTLEWFAALGLRWYALPAVSNMLLEIGGLEFPAAPFSGWYMSTEIGTRNLCDPHRYNILEDVAVCMDLDTRTTSSLWKDKAAVEINVAVLHSYQLAKVTIVDHHAATASFMKHLENEQKARGGCPADWAWIVPPISGSLTPVFHQEMVNYFLSPAFRYQPDPWKGSAAKGTGITRKKTFKEVANAVKISASLMGTVMAKRVKATILYGSETGRAQSYAQQLGRLFRKAFDPRVLCMDEYDVVSLEHETLVLVVTSTFGNGDPPENGESFAAALMEMSGPYNSSPRPEQHKSYKIRFNSISCSDPLVSSWRRKRKESSNTDSAGALGTLRFCVFGLGSRAYPHFCAFARAVDTRLEELGGERLLQLGQGDELCGQEEAFRGWAQAAFQAACETFCVGEDAKAAARDIFSPKRSWKRQRYRLSAQAEGLQLLPGLIHVHRRKMFQATIRSVENLQSSKSTRATILVRLDTGGQEGLQYQPGDHIGVCPPNRPGLVEALLSRVEDPPAPTEPVAVEQLEKGSPGGPPPGWVRDPRLPPCTLRQALTFFLDITSPPSPQLLRLLSTLAEEPREQQELEALSQDPRRYEEWKWFRCPTLLEVLEQFPSVALPAPLLLTQLPLLQPRYYSVSSAPSTHPGEIHLTVAVLAYRTQDGLGPLHYGVCSTWLSQLKPGDPVPCFIRGAPSFRLPPDPSLPCILVGPGTGIAPFRGFWQERLHDIESKGLQPTPMTLVFGCRCSQLDHLYRDEVQNAQQRGVFGRVLTAFSREPDNPKTYVQDILRTELAAEVHRVLCLERGHMFVCGDVTMATNVLQTVQRILATEGDMELDEAGDVIGVLRDQQRYHEDIFGLTLRTQEVTSRIRTQSFSLQERQLRGAVPWAFDPPGSDTNSP
  eNOS phosphorylation (Ser1177) in presence of Myr-CBD7: eNOS phosphorylation (Ser1177) was significantly enhanced in presence of Myr-CBD7
  phosphorylation of eNOS after CCR10 siRNA knockdown (western blot, A23187 stimulation): phosphorylation of eNOS was significantly increased compared to control siRNA, even at 0 minutes
